Consider three molecules from US20190330362A1 (GOVERNING COUNCIL OF THE UNIVERSITY OF TORONTO, published 2019).

The target of assay [1] is T1, human CD133 (GenBank Accession O43490) (human, UniProt O43490 20-865).
T1 construct: Full-length human CD133 overexpressed in HEK293-CD133 cells, or endogenous on Caco-2, HPAC, PL45, RWP-1 and GBM cells; In the Western blots the same protein is denatured in whole cell lysate; also called Prominin-1; cell surface CD133
T1 sequence: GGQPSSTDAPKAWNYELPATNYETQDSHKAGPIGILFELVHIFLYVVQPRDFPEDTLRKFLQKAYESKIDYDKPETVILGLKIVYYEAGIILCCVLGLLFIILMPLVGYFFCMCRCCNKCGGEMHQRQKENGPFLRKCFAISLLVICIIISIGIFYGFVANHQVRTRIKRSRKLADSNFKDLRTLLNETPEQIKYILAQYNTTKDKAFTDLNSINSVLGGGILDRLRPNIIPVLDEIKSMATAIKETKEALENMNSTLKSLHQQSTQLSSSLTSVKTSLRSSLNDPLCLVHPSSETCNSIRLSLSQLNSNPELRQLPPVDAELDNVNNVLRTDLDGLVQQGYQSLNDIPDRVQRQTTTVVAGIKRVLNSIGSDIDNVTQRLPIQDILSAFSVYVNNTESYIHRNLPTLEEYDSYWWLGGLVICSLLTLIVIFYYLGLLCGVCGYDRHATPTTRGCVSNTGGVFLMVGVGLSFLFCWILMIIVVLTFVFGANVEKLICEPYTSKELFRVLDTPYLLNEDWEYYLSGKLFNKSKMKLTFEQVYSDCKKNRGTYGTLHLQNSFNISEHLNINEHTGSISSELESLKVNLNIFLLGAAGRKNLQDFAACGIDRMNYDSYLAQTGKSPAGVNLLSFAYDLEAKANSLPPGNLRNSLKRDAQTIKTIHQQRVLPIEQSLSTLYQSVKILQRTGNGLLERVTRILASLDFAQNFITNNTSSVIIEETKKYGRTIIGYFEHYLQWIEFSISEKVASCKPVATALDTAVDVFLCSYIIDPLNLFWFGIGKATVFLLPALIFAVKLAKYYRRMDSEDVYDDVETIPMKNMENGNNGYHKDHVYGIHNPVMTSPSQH
Nature of the assay: flow cytometry, serial dilutions on HEK293-CD133 cells, anti-human Fab'2 secondary antibody. (A flow cytometer gives signals particle by particle.)

Assay [2] concerns the target T1, human CD133 (GenBank Accession O43490). The assay can be described thus: flow cytometry on CD133-expressing cells (cell line not given), IgG alone, secondary antibody against human Fc.
The target is the same in assay [3]. Nature of the assay: competitive flow cytometry on CD133-expressing cells first incubated with 25 nM Fab RW01, secondary antibody against human Fc.
The target is the same in assay [4]. Nature of the assay: cell-based phage ELISA (OD450).
Description: Following cell selections, round four output phage for each library was plated for single colonies. These colonies were grown up in an overnight culture and tested for binding to cells by cell-based ELISA. The plates were read and OD450 nm was detected and recorded. The assay measured binding of clones to CD133-overexpressing HEK293-CD133 cells (under “CD133” column headers) vs parental HEK293 cells (under “HEK293” column headers).
After four rounds of positive and negative selection, serial dilutions were made of the round four output phage (10E-1 to 10E-3) for each library and used to infect XL1-blue cells. The infected cells were plated for isolating single colonies to be used in a clonal cell-based ELISA for isolating CD133-specific binders.

What is called EC50 is the concentration at which the effect is half-maximal. Low readings indicate a more potent agent, high ones a less potent agent. In general, EC50 (read off the curve) refers to the midpoint of the concentration-response curve. The low end stands for a more potent agent, the high end for a less potent agent.

B1: IgG RW01 (antibody, V domains shown)
VH: EVQLVESGGGLVQPGGSLRLSCAASGFNIYYYGSMHWVRQAPGKGLEWVASISPYYGSTYYADSVKGRFTISADTSKNTAYLQMNSLRAEDTAVYYCARHASSGYGHYAVYGIDYWGQGTLVTVSS
VL: DIQMTQSPSSLSASVGDRVTITCRASQGSSYVAWYQQKPGKAPKLLIYSASYLYSGVPSRFSGSRSGTDFTLTISSLQPEDFATYYCQQGVWSLITFGQGTKVEIKR
notes: also called RW01 IgG; lIgG RW01
For the molecule B1, in assay [1], the EC50 came out at 2.5 nM.

B2: IgG RW03 (antibody, V domains shown)
VH: EVQLVESGGGLVQPGGSLRLSCAASGFNLSSSSIHWVRQAPGKGLEWVAYIYPYYSYTYYADSVKGRFTISADTSKNTAYLQMNSLRAEDTAVYYCARFGSVAGFDYWGQGTLVTVSS
VL: DIQMTQSPSSLSASVGDRVTITCRASQSVSSAVAWYQQKPGKAPKLLIYSASSLYSGVPSRFSGSRSGTDFTLTISSLQPEDFATYYCQQYSHAGHLFTFGQGTKVEIKR
notes: Human IgG1 (hG1) with kappa light chain (hK); variable region of Fab RW03 (Library F); also called RW03 IgG; lIgG RW03
Molecule B2 displayed an EC50 in assay [1] of 0.5 nM. For the same molecule, the concentration giving a half-maximal response (EC50 (read off the curve)) in assay [2] and in assay [3] was approximately 1 nM each time.

B3: phage-Fab RW03 (Fab, V domains shown)
VH: B2 VH
VL: DIQMTQSPSSLSASVGDRVTITCRASQSVSSAVAWYQQKPGKAPKLLIYSASSLYSGVPSRFSGSRSGTDFTLTISSLQPEDFATYYCQQYSHAGHLFTFGQGTKVEIK
notes: also called phage-Fab clone RW03; RW03 clone
For B3, the “fold binding to HEK293-CD133 cells vs HEK293 cells” value in assay [4] is not below 1.5 fold.
